Square brackets hold non-standard residues; d marks the D form. GABA = NCCCC(=O)O

Holding throughout (assay): positional peptide library pulldown on immobilised Nb, LC-MS of supernatant; signal ratio to control GFP-Nb (1 = not captured, near 0 = captured)
One experiment addresses T1, BC2T W10C(Abu) (SMILES …).
T1 construct: positional scanning library member
T1 peptide: Ac-PDRKAAVSH[GABA]QQ-NH2
The text has this:
(§1) In total, 12 different BC2T libraries displaying all 20 proteinogenic amino acids in one single position of the peptide were used in immunoprecipitation experiments. […] The direct comparison with the GFP-Nb made it possible to determine the quantitative degree of peptide capture without the need of labeled standards. […] The more peptide was captured the more the value approximates 0. It was not possible to discriminate between isoleucine (I) and leucine (L) peptide versions since these peptides are isobaric.
(§2) To investigate the binding specificity of the BC2T and derived mutants peptide libraries for each amino acid position of the sequence […] (SEQ ID NO:4) were synthesized with acetyl and amide groups located at the N-termini or C-termini respectively (Intavis). […] Incubations were performed in 300 μl PBS/0.01% CHAPS for 1 h on a HulaMixer (Life Technologies). Subsequent to a centrifugation step 10 μl supernatant were analyzed in a LC-MS procedure. Peptides were separated using an UltiMate3000 RSLCnano System (Thermo Scientific), composed of a C18 PepMap100μ-Precolumn (300 μm×5 mm; particle size: 5 μm; pore size: 100 Å—Thermo Scientific) and a C18 analytical column (Acclaim Rapid Separation LC (RSLC) Column: 150 mm×5 mm; particle size: 2.2 μm; pore size: 100 Å—Thermo Scientific). A step gradient was applied starting at 8% and ending after 20 min at 30% eluent B (80% acetonitrile, 20% H₂O, 0.1% formic acid).

A further experiment has as its target T2, BC2T Q12G.
T2 construct: positional scanning library member
T2 peptide: Ac-PDRKAAVSHWQG-NH2
From the text: as §1, §2

A further experiment has as its target T3, BC2T S8P.
T3 construct: positional scanning library member
T3 peptide: Ac-PDRKAAVPHWQQ-NH2
From the text: as §1, §2

A further experiment addresses T4, BC2T Q12T.
T4 construct: positional scanning library member
T4 peptide: Ac-PDRKAAVSHWQT-NH2
From the text: as §1, §2

The target in the next experiment is T5, BC2T Q12(I/L2) (N-terminal acetyl; C-terminal amide).
T5 construct: positional scanning library member; I or L not resolved
From the text: as §1, §2

The next experiment deals with T6, BC2T Q11F.
T6 construct: positional scanning library member
T6 peptide: Ac-PDRKAAVSHWFQ-NH2
From the text: as §1, §2

Another experiment concerns the target T7, BC2T Q11H.
T7 construct: positional scanning library member
T7 peptide: Ac-PDRKAAVSHWHQ-NH2
From the text: as §1, §2

A further experiment concerns the target T8, BC2T Q12K.
T8 construct: positional scanning library member
T8 peptide: Ac-PDRKAAVSHWQK-NH2
From the text: as §1, §2

The next experiment concerns the target T9, BC2T H9A.
T9 construct: positional scanning library member
T9 peptide: Ac-PDRKAAVSAWQQ-NH2
From the text: as §1, §2

The target in a further experiment is T10, BC2T S8N.
T10 construct: positional scanning library member
T10 peptide: Ac-PDRKAAVNHWQQ-NH2
From the text: as §1, §2

In the next experiment the target is T11, BC2T H9S.
T11 construct: positional scanning library member
T11 peptide: Ac-PDRKAAVSSWQQ-NH2
From the text: as §1, §2

Another experiment concerns the target T12, BC2T H9K.
T12 construct: positional scanning library member
T12 peptide: Ac-PDRKAAVSKWQQ-NH2
From the text: as §1, §2

Another experiment has as its target T13, BC2T S8R.
T13 construct: positional scanning library member
T13 peptide: Ac-PDRKAAVRHWQQ-NH2
From the text: as §1, §2

A further experiment has as its target T14, BC2T W10S.
T14 construct: positional scanning library member
T14 peptide: Ac-PDRKAAVSHSQQ-NH2
From the text: as §1, §2

Another experiment concerns the target T15, BC2T Q12C(Abu) (SMILES …).
T15 construct: positional scanning library member
T15 peptide: Ac-PDRKAAVSHWQ[GABA]-NH2
From the text: as §1, §2

The target in the next experiment is T16, BC2T Q11M.
T16 construct: positional scanning library member
T16 peptide: Ac-PDRKAAVSHWMQ-NH2
From the text: as §1, §2

The target in another experiment is T17, BC2T Q11(I/L1) (N-terminal acetyl; C-terminal amide).
T17 construct: positional scanning library member; I or L not resolved
From the text: as §1, §2

Another experiment deals with T18, BC2T Q12R.
T18 construct: positional scanning library member
T18 peptide: Ac-PDRKAAVSHWQR-NH2
From the text: as §1, §2

Another experiment concerns the target T19, BC2T H9W.
T19 construct: positional scanning library member
T19 peptide: Ac-PDRKAAVSWWQQ-NH2
From the text: as §1, §2

A further experiment addresses T20, BC2T H9F.
T20 construct: positional scanning library member
T20 peptide: Ac-PDRKAAVSFWQQ-NH2
From the text: as §1, §2

The target of the next experiment is T21, BC2T Q11(I/L2) (N-terminal acetyl; C-terminal amide).
T21 construct: positional scanning library member; I or L not resolved
From the text: as §1, §2

B1: BC2 nanobody (VHH)
VHH: QVQLVESGGGLVQPGGSLTLSCTASGFTLDHYDIGWFRQAPGKEREGVSCINNSDDDTYYADSVKGRFTIFMDNAKDTVYLQMNSLKPEDTAIYYCAEARGCKRGRYEYDFWGQGTQVTVSS
notes: immobilised on beads in this assay; also called BC2-Nb; BC2 nanotrap (immobilised)
In the case of B1, the ratio was 1 in the experiment with BC2T W10C(Abu); 0.2 in the experiment with BC2T Q12G; 0.7 with BC2T S8P; 0.1 with BC2T Q12T; 0.1 with BC2T Q12(I/L2); 0 in the experiment with BC2T Q11F. Moreover, the ratio stood at 0.1 with BC2T Q11H; 0 with BC2T Q12K; 0.2 with BC2T H9A; 0.2 with BC2T S8N; 0.2 with BC2T H9S; 0.2 in the experiment with BC2T H9K. Also, the ratio in the experiment with BC2T S8R is 0.5; with BC2T W10S it was 1.1; in the experiment with BC2T Q12C(Abu), 0.1; with BC2T Q11M, 0.1; with BC2T Q11(I/L1), 0.1; with BC2T Q12R, 0.1. Besides, the ratio with BC2T H9W, in the experiment with BC2T H9F and in the experiment with BC2T Q11(I/L2) was 0.1 in each case.

B2: BC2-NbR106S (VHH)
VHH: QVQLVESGGGLVQPGGSLTLSCTASGFTLDHYDIGWFRQAPGKEREGVSCINNSDDDTYYADSVKGRFTIFMDNAKDTVYLQMNSLKPEDTAIYYCAEARGCKRGSYEYDFWGQGTQVTVSS
notes: headlock mutant of BC2-Nb; immobilised on beads in this assay
Consider B2, for which the ratio with BC2T W10C(Abu) stood at 1; in the experiment with BC2T Q12G, 0.4; with BC2T S8P it was 1; with BC2T Q12T it was 0.3; with BC2T Q12(I/L2), 0.2; with BC2T Q11F, 0.2. Moreover, the ratio stood at 0.2 in the experiment with BC2T Q11H; 0.1 with BC2T Q12K; 0.5 with BC2T H9A; 0.7 in the experiment with BC2T S8N; 0.5 with BC2T H9S; 0.3 with BC2T H9K. The ratio with BC2T S8R is 0.9; with BC2T W10S it was 1.1; with BC2T Q12C(Abu), 0.2; with BC2T Q11M, 0.3; with BC2T Q11(I/L1) it was 0.2; in the experiment with BC2T Q12R, 0.1. Besides, the figures for the ratio in the experiment with BC2T H9W, in the experiment with BC2T H9F and in the experiment with BC2T Q11(I/L2) were 0.1, 0.3 and 0.4, respectively.

For the origin of these results see patent US20170137467A1 (CHROMOTEK, published 2017).
